Data as given in the nanobody polyreactivity screen of Harvey et al. (2022).

Experiment: yeast display, Sf9 membrane polyspecificity reagent, FACS + sequencing; frameworks hold sequencing errors
In short: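 Nanobodies from a synthetic yeast display library (Saccharomyces cerevisiae BJ5465), induced 36–48 hours with galactose, were stained 1 hour at 4 °C with 10% biotinylated, detergent-solubilized Sf9 membrane reagent, enriched on streptavidin microbeads, then FACS-sorted. Anti-HA (expression) and streptavidin (reagent binding) fluorescence set low and high (top ~1%) gates. Polyreactivity labels come from the gate of origin. Genes were colony-PCR amplified, MiSeq 2 × 250 sequenced and filtered by CDR length.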

| Sequence | polyreactivity (PSR sort gate) |
| --- | --- |
| QVQLVESGGGLVQAGGSLRLSCAASGIIFKYYAMGWYRQAPGKERELVAAISSRSGRTYYADSVKGRFTISRDNAKNTVYLQMNSLKPEDTAVYYCNVQVQRSYPYGYWGQGTQVTVSS | high polyreactivity |
| QVQLVESGGGLVQAGGSLRLSCAASGIIFLDYVMGWYRQAPGKERELVAAINSGGSTYYADSVKGRFTISRDNAKNTVYLQMNSLKPEDTAVYYCAADDYYKFDYWGQGTQVSVSS | low polyreactivity |
| QVQLVESGGGLVQAGGSLRLSCAASGIIFLDYVMGWYRQAPGKERELVAAISRSGGTTYYADSVKGRFTISRDNAKNTVYLQMNSLKPEDTAVYYCAVRSYRDTRFYYWGQGTKVTVSS | high polyreactivity |
| QVQLVESGGGLVQAGGSLRLSCAASGIIFLENAMGWFRQAPGKESELVAGINGGGRTDYADSVKGRFTISRDNAKHTVYLQMNSLKPEDTAVYYCAAESSWYSPDVNYCGQGTQVTVSS | low polyreactivity |
| QVQLVESGGGLVQAGGSLRLSCAASGIIFLFYAMGWYRQAPGKERELVASITWSGGSTYYADSVKGRFTISRDNAKNTVYLQMNSLKPEDTAVYYCAASVKIISYLVHSEFLGGELDYWGQGTQVTVSS | low polyreactivity |
| QVQLVESGGGLVQAGGSLRLSCAASGIIFLGNAMGWYRQAPGKERELVAAITASGTSTYYADSVKGRFTISRDNAKNTVYLQMNSLKPEDTAVYYCAAQSTWYDYYYWGQGTQVTVSS | low polyreactivity |
| QVQLVESGGGLVQAGGSLRLSCAASGIIFLGYVMGWYRQAPGKERELVAAISSSGGRTYYADSVKGRFTISRDNAKNTVYLQMNSLKPEDTAVYYCARYSYRGTNVRYDYWGQGTQVTVSS | high polyreactivity |
| QVQLVESGGGLVQAGGSLRLSCAASGIIFLLYAMGWYRQAPGKERELVAAITNGGRTNYADSVKGRFTISRDNAKNTVYLQMNSLKPEDTAVYYCNAVLSVPDYTLFDYWGQGTQVTVSS | low polyreactivity |
| QVQLVESGGGLVQAGGSLRLSCAASGIIFLNYDIGWYRPAPGKERELVAAITTSGASTYYADSVKGRFTISRDNAKNTVYLQMNSLKREDTAVYYCAAVFRHARYRYDYWGQGTQVTVSS | high polyreactivity |
| QVQLVESGGGLVQAGGSLRLSCAASGIIFLSYAMGWYRQAPGKERELVATITRSGGSTYYADSVEGRFTISRDNAKNTVYLQMNSLKPEDTAVYYCARYWRTSGVRMDYWGQGTQVTVSS | high polyreactivity |
| QVQLVESGGGLVQAGGSLRLSCAASGIIFNDYAMGWYRQAPGKERELVAAISWSGGRTYYADSVKGRFTISRDNAKNTVYLQMNSLKPEDTAVYYCNARARQYSAFPVVERNYWGQGTQVTVSS | high polyreactivity |
| QVQLVESGGGLVQAGGSLRLSCAASGIIFNRYAMGWYRQAPGKERELVAAISASGDSTYYADSVKGRFTISRDNAKYTVYLQMNSLKPEDTAVDYCAADYGYRYDYWGHGTQVTVSS | low polyreactivity |
| QVQLVESGGGLVQAGGSLRLSCAASGIIFNTYAMGWYRQAPGKERELVAAIDSRDASTYADSVKGRYTISRDNAKNTVYLQMNSLIPEDTAVYYCAATHNVDLISEVYYWGQGTQVTVSS | low polyreactivity |
| QVQLVESGGGLVQAGGSLRLSCAASGIIFPDYVMGWYRQAPGKERELVATITNDSSTTYADSVKGRFTISRDNAKNTVYLQMNSLKPEDTAVYYCAAPVDYQGDYWGQGTQVTVSS | low polyreactivity |
| QVQLVESGGGLVQAGGSLRLSCAASGIIFPEYDMGWYRQAPGKERELVAAITKSDGRTYYADSVKGRFTISRDNAKNTVYLQMNSLKPEDTAVYYCNADPRVVAYLGFDSWGQGTQVTVSS | low polyreactivity |
| QVQLVESGGGLVQAGGSLRLSCAASGIIFPFYVMGWYRQAPGKERELVAAITWSGDGTYYADSVKGRFTISRDNAKNTVYLQMNSLKPEDTAVYYCAAQWYYGGVKYYYWGQGTQVTVSS | low polyreactivity |
| QVQLVESGGGLVQAGGSLRLSCAASGIIFPLYAMGWYRQAPGKERELVADITRGGSTYYADSVKGRFTISRDNAKNTVYLQMNSLKPEDTAVYYGNKQKRWTYSHYFPTTYDYWGQGTQVTVSS | high polyreactivity |
